Results: US20160264960A1 (Chugai, published 2016)
Blank lines part the entries; values can stand above or below the binder they belong to.

Key:
[1] = target: T1, soluble human IL-6R (human, UniProt P08887 20-357); assay: biolayer interferometry (Octet RED384), antibody on Protein G biosensor, soluble human IL-6R in solution, 120 s association and 120 s dissociation [a]
T1 construct: Analyte in the Octet experiments; also called hIL-6R; soluble hIL-6R
T1 sequence: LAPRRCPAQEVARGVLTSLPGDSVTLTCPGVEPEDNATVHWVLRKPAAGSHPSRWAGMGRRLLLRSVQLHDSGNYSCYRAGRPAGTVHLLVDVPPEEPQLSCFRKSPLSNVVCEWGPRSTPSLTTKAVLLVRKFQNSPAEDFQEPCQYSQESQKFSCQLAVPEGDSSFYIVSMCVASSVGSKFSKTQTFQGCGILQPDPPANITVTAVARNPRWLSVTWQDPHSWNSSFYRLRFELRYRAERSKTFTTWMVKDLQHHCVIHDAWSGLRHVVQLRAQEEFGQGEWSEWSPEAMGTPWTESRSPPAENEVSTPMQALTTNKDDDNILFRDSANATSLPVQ
Experimental: (§1) The binding evaluation was conducted using HBS-EP+Buffer (GE Healthcare Japan Corp.) as a buffer.
(§2) After binding of the antibody to Protein G Biosensors (forteBIO), soluble human IL-6R or soluble human plexin A1 was allowed to interact with the antibody on the biosensor through contact therebetween for 120 seconds, and subsequently contacted with the buffer for 120 seconds to measure the antibody-antigen interaction. Then, the biosensor was regenerated through contact with 10 mmol/L glycine-HCl (pH 1.5). The measurement was conducted at 30° C.

[2] = target: T2, soluble human plexin A1 (human, UniProt Q9UIW2 27-1244); assay: biolayer interferometry (Octet RED384), antibody on Protein G biosensor, soluble human plexin A1 in solution; antigen concentration not given [a]
T2 construct: also called hPlexin A1; human Plexin A1 extracellular region
Experimental: as §1, §2

[3] = target: T1, soluble human IL-6R; assay: biolayer interferometry (Octet RED384), antibody on Protein G biosensor, soluble human IL-6R in solution, 120 s association and 120 s dissociation [a]; remark: listed apart in the source
Experimental: (§3) The antibody (6RhCEB3(2)_10) obtained in the paragraph (6-2) or an anti-CD3 antibody hCE115HA/L0000 (heavy chain: SEQ ID NO: 42; light chain: SEQ ID NO: 66) was evaluated for its binding activity against soluble human IL-6R and human CD3e (hCD3e) using Octet RED384 (forteBIO). The binding evaluation was conducted using HBS-EP+Buffer (GE Healthcare Japan Corp.) as a buffer.
as §2, with “or” for “or soluble”, “CD3e” for “plexin A1”

[4] = target: T3, human CD3e (hCD3e) extracellular region with FLAG tag (human, UniProt P07766 22-129); assay: biolayer interferometry (Octet RED384), antibody on Protein G biosensor, human CD3e in solution; antigen concentration not given [a]
Experimental: as §3
as §2, with “or” for “or soluble”, “CD3e” for “plexin A1”

[5] = target: T1, soluble human IL-6R; assay: biolayer interferometry (Octet RED384), antibody on Protein G biosensor, soluble human IL-6R in solution; antigen concentration not given [b]
Experimental: as §3
as §2, with “or” for “or soluble”, “CD3e” for “plexin A1”

[6] = target: T3, human CD3e (hCD3e) extracellular region …; assay: biolayer interferometry (Octet RED384), antibody on Protein G biosensor, human CD3e in solution, 120 s association and 120 s dissociation [b]
Experimental: as §3
as §2, with “or” for “or soluble”, “CD3e” for “plexin A1”

[7] = target: T4, mouse IgA (mouse, UniProt P01878 114-344); assay: biolayer interferometry (Octet RED384), antibody on Protein G biosensor, mouse IgA in solution; antigen concentration not given [a]
T4 sequence (looked up): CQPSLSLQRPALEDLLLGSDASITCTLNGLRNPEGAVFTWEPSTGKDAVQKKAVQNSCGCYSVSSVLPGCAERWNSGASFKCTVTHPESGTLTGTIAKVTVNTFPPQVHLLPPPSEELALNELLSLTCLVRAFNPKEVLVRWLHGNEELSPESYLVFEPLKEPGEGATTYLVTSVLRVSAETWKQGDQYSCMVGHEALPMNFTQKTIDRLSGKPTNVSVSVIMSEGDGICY
Experimental: (§4) Each antibody (6RmIAB3(2)_02, 6RmIAB3(2)_06, and 6RmIAB3(2)_16) obtained in the paragraph (6-2) or an anti-mouse IgA antibody mIANMIgL_095 (heavy chain: SEQ ID NO: 41; light chain: SEQ ID NO: 65) was evaluated for its binding activity against soluble human IL-6R and mouse IgA using Octet RED384 (forteBIO). The binding evaluation was conducted using HBS-EP+Buffer (GE Healthcare Japan Corp.) as a buffer.
as §2, with “mouse IgA” for “soluble human plexin A1”

[8] = target: T1, soluble human IL-6R; assay: biolayer interferometry (Octet RED384), antibody on Protein G biosensor, soluble human IL-6R in solution, 120 s association and 120 s dissociation [a]; remark: listed apart in the source
Experimental: as §4
as §2, with “mouse IgA” for “soluble human plexin A1”

[9] = target: T4, mouse IgA; assay: biolayer interferometry (Octet RED384), antibody on Protein G biosensor, mouse IgA in solution; antigen concentration not given [b]
Experimental: as §4
as §2, with “mouse IgA” for “soluble human plexin A1”

[10] = target: T1, soluble human IL-6R; assay: biolayer interferometry (Octet RED384), antibody on Protein G biosensor, soluble human IL-6R in solution, 120 s association and 120 s dissociation [b]
Experimental: as §4
as §2, with “mouse IgA” for “soluble human plexin A1”

[11] = target: T1, soluble human IL-6R; assay: biolayer interferometry (Octet RED384), antibody on Protein G biosensor, soluble human IL-6R in solution; antigen concentration not given [d]
Experimental: as §4
as §2, with “mouse IgA” for “soluble human plexin A1”

[12] = target: T1, soluble human IL-6R; assay: biolayer interferometry (Octet RED384), antibody on Protein G biosensor, soluble human IL-6R in solution; antigen concentration not given [b]; remark: listed apart in the source
Experimental: as §1, §2

[13] = target: T2, soluble human plexin A1; assay: biolayer interferometry (Octet RED384), antibody on Protein G biosensor, soluble human plexin A1 in solution, 120 s association and 120 s dissociation [b]
Experimental: as §1, §2

[14] = target: T1, soluble human IL-6R; assay: biolayer interferometry (Octet RED384), antibody on Protein G biosensor, soluble human IL-6R in solution, 120 s association and 120 s dissociation [b]; remark: listed apart in the source
Experimental: (§5) Each antibody (6RNH-2_02, 6RNH-2_37, 6RNH-3(2)_32, and 6RNH-2_42) obtained in the paragraph (4-1) was evaluated for its binding activity against soluble human IL-6R using Octet RED384 (forteBIO). The binding evaluation was conducted using HBS-EP+ Buffer (GE Healthcare Japan Corp.) as a buffer.
as §2, with “IL-6R” for “IL-6R or soluble human plexin A1”

[15] = target: T1, soluble human IL-6R; assay: biolayer interferometry (Octet RED384), antibody on Protein G biosensor, soluble human IL-6R in solution, 120 s association and 120 s dissociation [c]
Experimental: as §5
as §2, with “IL-6R” for “IL-6R or soluble human plexin A1”

T2 sequence (Q9UIW2 other isoform, or with tags, fused parts or gaps): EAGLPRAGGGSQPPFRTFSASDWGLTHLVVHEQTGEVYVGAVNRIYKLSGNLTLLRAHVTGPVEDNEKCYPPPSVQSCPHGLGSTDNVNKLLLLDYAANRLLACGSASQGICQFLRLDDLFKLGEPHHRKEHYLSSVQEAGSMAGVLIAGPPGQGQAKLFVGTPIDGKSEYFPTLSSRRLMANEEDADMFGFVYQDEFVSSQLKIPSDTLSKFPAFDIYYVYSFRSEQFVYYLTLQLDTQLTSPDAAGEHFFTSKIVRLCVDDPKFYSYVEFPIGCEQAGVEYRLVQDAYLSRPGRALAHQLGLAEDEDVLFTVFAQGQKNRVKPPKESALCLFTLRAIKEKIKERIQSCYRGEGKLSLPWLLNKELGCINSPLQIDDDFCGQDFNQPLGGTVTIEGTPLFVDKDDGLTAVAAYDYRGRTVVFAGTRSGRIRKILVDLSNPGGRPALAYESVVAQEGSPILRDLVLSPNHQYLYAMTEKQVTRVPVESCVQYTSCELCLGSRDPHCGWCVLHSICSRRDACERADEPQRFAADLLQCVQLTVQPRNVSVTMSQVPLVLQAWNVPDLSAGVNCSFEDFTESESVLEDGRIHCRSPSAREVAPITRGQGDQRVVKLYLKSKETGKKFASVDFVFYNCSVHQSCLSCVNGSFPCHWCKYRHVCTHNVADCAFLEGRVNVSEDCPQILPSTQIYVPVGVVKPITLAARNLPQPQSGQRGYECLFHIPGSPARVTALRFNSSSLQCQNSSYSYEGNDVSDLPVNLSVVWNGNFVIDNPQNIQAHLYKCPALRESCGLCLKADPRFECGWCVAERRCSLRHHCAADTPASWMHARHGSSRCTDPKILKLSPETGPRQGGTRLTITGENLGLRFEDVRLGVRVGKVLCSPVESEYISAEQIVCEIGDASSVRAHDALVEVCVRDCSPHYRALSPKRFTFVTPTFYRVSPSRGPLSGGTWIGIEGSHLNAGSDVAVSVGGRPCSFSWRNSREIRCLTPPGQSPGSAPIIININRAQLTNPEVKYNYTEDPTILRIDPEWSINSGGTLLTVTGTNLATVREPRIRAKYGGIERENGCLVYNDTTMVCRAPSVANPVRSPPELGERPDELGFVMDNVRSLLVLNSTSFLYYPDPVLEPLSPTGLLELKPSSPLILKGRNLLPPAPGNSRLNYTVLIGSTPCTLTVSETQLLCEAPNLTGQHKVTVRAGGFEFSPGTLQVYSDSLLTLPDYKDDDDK
T3 sequence (P07766 other isoform, or with tags, fused parts or gaps): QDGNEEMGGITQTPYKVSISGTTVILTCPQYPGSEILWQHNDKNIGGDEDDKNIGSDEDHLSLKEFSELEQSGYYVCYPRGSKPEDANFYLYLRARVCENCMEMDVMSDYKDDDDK

binding result [1]: binds
binding result [2]: no binding
B1: 6RPAB3_03 (antibody, human IgG1, kappa, V domains shown)
VH: EVQLVESGGGLVQPGGSLRLSCATSGFTFSSYEMNWVRQAPGKGLEWVSYIDRSGSTIYYADSVKGRFTISRDNAKNSLYLQMNSLRAEDTAVYYCAGEWWQGDSWGQGTTVTVSS
VL: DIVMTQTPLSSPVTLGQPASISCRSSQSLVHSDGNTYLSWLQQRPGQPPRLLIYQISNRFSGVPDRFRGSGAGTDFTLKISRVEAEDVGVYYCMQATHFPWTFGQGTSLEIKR

binding result [3]: binds
binding result [4]: no binding
B2: 6RhCEB3(2)_10 (antibody, human IgG1, kappa, V domains shown)
VH: QVQLVQSGAEVKKPGSSVKVSCKASGGTFSSYAISWVRQAPGQGLEWMGGIIPIFGTANYAQKFQGRVTITADESTSTAYMELSSLRSEDTAVYYCARDHYDILTGYPDPTYYYYGMDVWGQGTMVTVSS
VL: DIVMTQSPLSLPVTPGEPASISCRSSQSLVHSNRNTYLHWYQQKPGQAPRLLIYKVSNRFSGVPDRFSGSGSGTDFTLKISRVEAEDVGVYYCGQGTQVPYTFGQGTKLEIKR
notes: IgG with the L chain of the humanized anti-CD3 antibody CE115

binding result [5]: no binding
binding result [6]: binds
B3: hCE115HA/L0000 (antibody, human IgG1, kappa, V domains shown)
VH: QVQLVESGGGVVQPGRSLRLSCAASGFTFSNAWMHWVRQAPGKGLEWVAQIKAKSNNYATYYAESVKGRFTISRDDSKNSLYLQMNSLKTEDTAVYYCRYVHYGAYYGVDAWGQGTTVTVSS
VL: DIVMTQSPLSLPVTPGEPASISCRSSQSLVHSNRNTYLHWYQQKPGQAPRLLIYKVSNRFSGVPDRFSGSGSGTDFTLKISRVEAEDVGVYYCGQGTQVPYTFGQGTKLEIKR
notes: also called anti-CD3 antibody hCE115HA/L0000; humanized anti-human CD3 antibody CE115

binding result [7]: no binding
binding result [8]: binds
B4: 6RmIAB3(2)_02 (antibody, human IgG1, lambda, V domains shown)
VH: QVQLQESGPGLVKPSGTLSLTCAVSGGSISSSDWWSWVRQPPGKGLEWIGEIYHGGSTNYNPSLKSRVTISVDRSKNQFSLNLSSVTAADTAVYYCARAPRGSYRIDYWGQGTLVTVSS
VL: SYELTQPPSVSVSPGQSASITCSGDKLGDRFVTWYQQKPGQSPVLVMYQDNQRPSGIPERFSGSNSGNTATLTITGTPAMDEADYYCQTWDAGTGVVFGGGTKLTVLS
notes: IgG with the L chain of the anti-mouse IgA antibody mIANMIgL_095; Culture supernatant was recovered; no purification is described

binding result [9]: no binding
binding result [10]: binds
B5: 6RmIAB3(2)_06 (antibody, human IgG1, lambda, V domains shown)
VH: QVQLVQSGAEVKKPGASVKVSCKASGYTFATSGISWVRQAPGQGLEWLGWISPYNSRTNSAQKLQGRVNMTTDTSTNTAYLELRSLTSDDTAVYYCARANGDYRNWFDPWGQGTLVTVSS
VL: SYELTQPPSVSVSPGQSASITCSGDKLGDRFVTWYQQKPGQSPVLVMYQDNQRPSGIPERFSGSNSGNTATLTITGTPAMDEADYYCQTWDAGTGVVFGGGTKLTVLS
notes: IgG with the L chain of the anti-mouse IgA antibody mIANMIgL_095; Culture supernatant was recovered

binding result [11]: no binding
B6: mIANMIgL_095 (antibody, human IgG1, lambda, V domains shown)
VH: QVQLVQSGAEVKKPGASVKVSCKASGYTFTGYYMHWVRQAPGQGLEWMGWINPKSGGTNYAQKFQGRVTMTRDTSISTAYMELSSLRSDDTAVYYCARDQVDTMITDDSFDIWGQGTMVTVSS
VL: SYELTQPPSVSVSPGQSASITCSGDKLGDRFVTWYQQKPGQSPVLVMYQDNQRPSGIPERFSGSNSGNTATLTITGTPAMDEADYYCQTWDAGTGVVFGGGTKLTVLS
notes: also called anti-mouse IgA antibody mIANMIgL_095

binding result [12]: no binding
binding result [13]: binds
B7: hPANKB2-3#135 (antibody, human IgG1, kappa, V domains shown)
VH: EVQLVQSGAEVKKPGASVKVSCKASGYTFTSYGISWVRQAPGQGLEWMGWISAYNGNTNYAQKLQGRVTMTTDTSTSTAYMELRSLRSDDTAVYYCARGGRGGDAFDIWGQGTMVTVSS
VL: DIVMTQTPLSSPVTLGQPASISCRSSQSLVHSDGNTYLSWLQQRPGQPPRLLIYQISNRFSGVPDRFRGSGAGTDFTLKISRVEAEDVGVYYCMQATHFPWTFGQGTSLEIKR

binding result [14]: binds
B8: 6RNH-2_37 (antibody, human IgG1, kappa, V domains shown)
VH: QVQLQESGPGLVRPSQTLSLTCTVSGYSITSDHAWSWVRQPPGRGLEWIGYISYSGITTYNPSLKSRVTMLRDTSKNQFSLRLSSVTAADTAVYYCARSLARTTAMDYWGQGTLVTVSS
VL: DIQMTQSPSSLSASVGDSVTITCQASQDISSYLNWYQQKPGKAPELLIYYGSELHSGVPSRFSGSGSGTDFTFTISSLEAEDAATYYCGQGNRLPYTFGQGTKVEIER
notes: IgG with the PF1 L chain

binding result [15]: binds
B9: 6RNH-3(2)_32 (antibody, human IgG1, kappa, V domains shown)
VH: QVQLQESGPGLVKPSETLSLTCAVSGYSISHDHAWSWVRQPPGEGLEWIGHISYSGITNYNPHLQDRVTISRDTSKNQFSLKLSSVTAADTAVYYCARFLARITAHDHWGEGTLVTVSS
VL: DIQMTQSPSSLSASVGDSVTITCQASQDISSYLNWYQQKPGKAPELLIYYGSELHSGVPSRFSGSGSGTDFTFTISSLEAEDAATYYCGQGNRLPYTFGQGTKVEIER
notes: IgG with the PF1 L chain
